Test results reported in paper PMC3634489.

How the values were obtained:
[1] = biological target: 2A1 IgA of the combination HCα1-LCλ-JC (heavy chain α1 without KDEL, λ light chain, co-expressed J chain) (human) (UniProt P01591); experiment: ELISA
[2] = biological target: 2A1 IgA of the combination HCα1-LCλ-JC (heavy chain α1 without KDEL, λ light chain, co-expressed J chain) (human) (UniProt P01591); experiment: SEC
[3] = biological target: 2A1 IgA of the combination HCα1-LCλ-JC (heavy chain α1 without KDEL, λ light chain, co-expressed J chain) (human) (UniProt P01591); experiment: ELISA; […]) capture antibody, […]

Chain of UniProt P01591 (P01591 whole entry, looked up): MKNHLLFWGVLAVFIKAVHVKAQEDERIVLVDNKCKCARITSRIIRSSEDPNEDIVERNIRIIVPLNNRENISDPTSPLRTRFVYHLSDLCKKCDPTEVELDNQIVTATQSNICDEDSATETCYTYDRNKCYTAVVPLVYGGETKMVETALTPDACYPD

secretory component with a C-terminal KDEL signal (SCkdel) (from UniProt P01833 19-638) (domain or fragment)
percent of total HC in the sIgA complex [1]: 21%
percent of total IgA content as sIgA [2]: 20%
percent of total HC in the sIgA complex [3]: > 33%
